Where “and” joins values, the source holds several entries; their conditions need not be identical. Equal values may be shown once.

As a reminder, the stoichiometry N is the number of molecules, sites or subunits per partner or assembly.

Assay [1] addresses DrdV restriction-modification enzyme (Deinococcus wulumuqiensis 479). Briefly: cryo-EM structure.
The target is the same in assay [2]. Kind of assay: cryo-EM structure. The source holds these as a separate data set.
For assay [3] the target is unchanged. Briefly: negative stain EM.
Assay [4] has the same target. Briefly: SEC. In general terms: Size exclusion chromatography separates by hydrodynamic size, large species first.

Consider DrdV restriction-modification enzyme, for which the stoichiometry N in assay [1] is 3 and 4; in assay [2], 2; in assay [3], 4; in assay [4], 4.

Source of the values: publication PMC8178248.
